Publication PMC12527946, “Structural analyses define the molecular basis of clusterin chaperone function” (Nature Structural & Molecular Biology, 2025)
Blank lines part the entries; values can stand above or below the binder they belong to.

B2: wild-type human clusterin (WT Clu) (natural protein)
chain 1: DQTVSDNELQEMSNQGSKYVNKEIQNAVNGVKQIKTLIEKTNEERKTLLSNLEEAKKKKEDALNETRESETKLKELPGVCNETMMALWEECKPCLKQTCMKFYARVCRSGSGLVGRQLEEFLNQSSPFYFWMNGDRIDSLLENDRQQTHMLDVMQDHFSRASSIIDELFQDRFFTREPQDTYHYLPFSLPHRRPHFFFPKSRIVR
chain 2: SLMPFSPYEPLNFHAMFQPFLEMIHEAQQAMDIHFHSPAFQHPPTEFIREGDDDRTVCREIRHNSTGCLRMKDQCDKCREILSVDCSTNNPSQAKLRRELDESLQVAERLTRKYNELLKSYQWKMLNTSSLLEQLNEQFNWVSRLANLTQGEDQYYLRVTTVASHTSDSDVPSGVTEVVVKLFDSDPITVTVPVEVSRKNPKFMETVAEKALQEYRKKHREE
modifications: N-glycans (six in the whole protein); five disulfide bonds to the α-chain | N-glycans (six in the whole protein); five disulfide bonds to the β-chain
notes: clusterin β-chain, human, residues 23–227 of the precursor; clusterin α-chain, human, residues 228–449 of the precursor; Almost completely processed by furin into β- and α-chain, which stay disulfide-linked; In the flotation assay it stood in DMPC nanodiscs (Clu–DMPC); also called apolipoprotein J; ApoJ

Key:
[1] = target: VLDLR(28–797)Δ(751–779)-C-tag (VLDLR ectodomain) (human, UniProt P98155-2 28-797, Δ(751–779), Secreted from HEK293E, glycosylated, Ca2+-bound LDLR repeats, disulfides; C-terminal C-tag left out. Deletion 751-779 taken as printed, in the numbering of the long isoform); assay: ELISA; plate coated with 10 µg/ml VLDLR-ed; Clu or RAP in TBS-C pH 7.4, 2 mM CaCl2, 2% BSA, 0.05% Tween-20, 1 h at room temperature; background binding to BSA subtracted; one-site specific binding fit; conditions: both partners purified
[2] = target: VLDLR(28–797)Δ(751–779)-C-tag (VLDLR ectodomain) (human, UniProt P98155-2 28-797, Δ(751–779)); assay: as above; conditions: both partners purified
[3] = target: the molecule itself; assay: SEC; 10 μM Clu in 20 mM MES-NaOH pH 6.5, HEPES-NaOH pH 7.5 or Tris-HCl pH 8.5, 100 mM NaCl, 1 mM EDTA, overnight or longer on ice; Superdex-200 Increase 3.2/300 at room temperature; monomers and dimers
[4] = target: B2; assay: SEC; D-Rho diluted into PBS to 0.5 μM with 1.5 μM WT Clu, 30 min at 25 °C; soluble fraction on Superose-6, fractions by SDS-PAGE and immunoblotting against Rho and Clu; conditions: both partners purified

Kd [1]: ~1.2 nM
B1: receptor-associated protein (RAP) (natural protein, UniProt P30533 36-357, looked up)
chain: SREKNQPKPSPKRESGEEFRMEKLNQLWEKAQRLHLPPVRLAELHADLKIQERDELAWKKLKLDGLDEDGEKEARLIRNLNVILAKYGLDGKKDARQVTSNSLSGTQEDGLDDPRLEKLWHKAKTSGKFSGEELDKLWREFLHHKEKVHEYNVLLETLSRTEEIHENVISPSDLSDIKGSVLHSRHTELKEKLRSINQGLDRLRRVSHQGYSTEAEFEEPRVIDLWDLAQSANLTDKELEAFREELKHFEAKIEKHNHYQKQLEIAHEKLRHAESVGDGERVSRSREKHALLEGRTKELGYTVKKHLQDLSGRISRARHNEL
notes: LRPAP1 from plasmid pQTEV-LRPAP1; the signal peptide (amino acids 1–35) was removed; Purification is told in the Supplementary Information; also called LRPAP1; low density lipoprotein receptor-related protein-associated protein 1

Binder: B2
Kd [2]: ~80 nM | stoichiometry N [3]: 2

binding result [4]: binds
B3: denatured bovine rhodanese (D-Rho) (enzyme, UniProt P00586 1-297, looked up)
chain: MVHQVLYRALVSTKWLAESVRAGKVGPGLRVLDASWYSPGTREARKEYLERHVPGASFFDIEECRDKASPYEVMLPSEAGFADYVGSLGISNDTHVVVYDGDDLGSFYAPRVWWMFRVFGHRTVSVLNGGFRNWLKEGHPVTSEPSRPEPAIFKATLNRSLLKTYEQVLENLESKRFQLVDSRAQGRYLGTQPEPDAVGLDSGHIRGSVNMPFMNFLTEDGFEKSPEELRAMFEAKKVDLTKPLIATCRKGVTACHIALAAYLCGKPDVAIYDGSWFEWFHRAPPETWVSQGKGGKA
notes: rhodanese (33 kDa), bovine; Denatured in 6 M guanidinium–HCl and 5 mM DTT and diluted 120-fold into buffer; non-native, forms oligomers and aggregates
